Experimental data reported in publication PMC10998830.
“And” between values parts separate entries of the source, which are not always exact repeats. Equal entries are not always repeated.

Legend:
[1] = tested on: O=P(O)(O)OC[C@H]1O[C@H](OP(=O)(O)OP(=O)(O)O)[C@H](O)[C@@H]1O; assay: purified protein, by the assay type; conditions: 25.0 °C
Protocol: (§1) Kinetics and thermal denaturation data were analysed by the nonlinear regression function of SigmaPlot 14.0 (SPSS Inc.). Thermal denaturation data were fitted to Eq. (1). Substrate saturation curves at a fixed concentration of the co-substrate were fitted to Eq. (2). Initial rate data at varying concentrations of HisZ were fitted to Eq. (3). The concentration of ATPPRT at any concentration of AbHisGS and AbHisZ was calculated according to Eq. (4). Histidine dose-response data were fitted to Eq. (5). Single-turnover data with WT-AbATPPRT isotopologues were fitted to Eq. (6). Plots of kcat ratios against relative viscosity were fitted to Eq. (7). Temperature-rate profile for AbHisGS was fitted to Eq. (8). Single-turnover data with R70A-AbATPPRT isotopologues were fitted to Eq. (9). In Eqs. […] While kcats for [^13C,^15N]AbHisGS and [^2H,^13C,^15N]AbHisGS are marginally lower than for unlabelled AbHisGS and [^15N]AbHisGS, the overlapping nature of most data points in Fig. 1c disagrees with distinguishable heavy-enzyme kinetic isotope effects on kcat (^HEkcat). […] This was further probed by pre-steady-state kinetics under multiple-turnover conditions. The AbHisGS reaction had been shown not to have a burst of product formation, which is reproduced here for unlabelled AbHisGS, whose traces overlap with those for [^2H,^13C,^15N]AbHisGS (Supplementary Fig. 5). S5 Supplementary Figure 4 Substrate saturation curves for unlabelled AbATPPRT with AbHisGS purified from cultures grown in M9 and M9 with high cell density compared with previously published data (reproduced here) for unlabelled AbATPPRT with AbHisGS purified from cultures grown in LB. For the M9 and M9 high cell density curves, all data points are shown for two independent measurements, except for the previously published LB curves, where data are the mean of two independent measurements. Lines are best fit of the data to equation (2): solid line for M9 high cell density curves, long-dashed line for M9 curves, and short-dashed line for previously published LB curves. Supplementary Figure 5 Rapid kinetics of PRATP formation at 25 °C by unlabelled AbHisGS and [2H,13C,15N]AbHisGS under multiple-turnover conditions. All traces are shown for eight replicates with each isotopologue.

[2] = tested on: Nc1ncnc2c1ncn2[C@@H]1O[C@H](COP(=O)(O)OP(=O)(O)OP(=O)(O)O)[C@@H](O)[C@H]1O; assay: purified protein, by the assay type; conditions: 25.0 °C
Protocol: as §1

In the case of AbHisGS (Acinetobacter baumannii ACICU), the Km [1] is reported as 540 ± 40 µM and 330 ± 10 µM and 420 ± 20 µM, the kcat [1] is reported as 0.38 s⁻¹ and 0.34 s⁻¹ and the kcat/Km [1] is reported as 700 M⁻¹ s⁻¹ and 1020 M⁻¹ s⁻¹ and 810 M⁻¹ s⁻¹. The Km [2] was 900 ± 100 µM and 800 ± 100 µM and 590 ± 30 µM, the kcat [2] was 0.38 s⁻¹ and 0.34 s⁻¹ and the kcat/Km [2] was 420 M⁻¹ s⁻¹ and 580 M⁻¹ s⁻¹.
